Measured values taken from the supplement of paper PMC10567573.

B1: C10orf62 (parent)
chain: GHSHHSHHGHPSHQSHSLPNRRH

Variants of: B1
Experiment: protein stability index of a GFP-peptide fusion (GPS, HEK-293T) (PSI 1-6); higher = more stable
Settings: c terminus: native
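Further: lentivirally expressed fusions sorted by FACS into six bins by GFP to DsRed ratio, PSI derived from sequencing read proportions per bin multiplied by bin number.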

Protein stability index: each site, then its substitutions
P11: G 3.85, R 3.75, A 3.2, V 2.5, T 2.56, W 2.03, C 4.84, D 2.88, E 2.1, N 2.98, Y 2.47, F 2.29, S 2.71, M 1.92, L 3.12, Q 3.94, K 4.06, I 4.55
S17: I 2.64, G 3.77, C 2.65, P 4.04, F 1.8, M 3.01, E 2.14, A 2.08, D 2.43, Q 2.82
H10: R 3.48, I 2.96, Y 3.67, K 2.86, G 2.34, T 2.53, D 1.74, M 2.98, C 3.79, Q 3.81, E 1.48, S 2.08, P 2.43, W 3.14, A 3.41
H8: P 1.38, Q 2.84, E 2.42, C 4, F 3.5, I 3.3, D 1.96, A 5.15, R 2.72, Y 3.29, N 4.02, G 2.46, K 3.13, T 3.37, S 2.96, M 2.06
H13: E 2.68, W 2.6, C 3.33, S 2.65, P 2.47, A 3.6, D 2.86, Q 2.12, L 3.34, Y 3.26, K 2.51, F 3.57, M 5.42, T 3.08, R 2.55
H16: C 2.19, T 2.08, M 2.32, W 3.05, F 3.84, G 3.63, E 1.78, D 3.54, A 2.55, V 2.2, I 3.15, S 3, P 2.52
G9: N 2.82, F 3.35, D 2.41, P 1.91, M 3.76, A 2.81, E 3.5, S 2.37, V 3.15, C 4.56, L 2.26, K 3.76, W 3.1, H 3.58, I 4.14, Q 2.3, T 1.87
S6: W 4, Y 3.47
H7: K 2.14, M 1.87, D 3.05, A 2.72, T 2.66, E 2.1, P 4.21, G 1.83, R 3.22, L 3.37, S 3.47, N 2.44, W 2.41, C 2.65
S15: M 2.74, H 2.48, D 2.07, Q 2.95, R 3.2, E 3.39, K 3.18, Y 2.6, F 2.19, N 3.44, G 3.98, W 2.92, T 2.91, P 3.1, A 3.68, V 3.59
S12: L 2.34, G 2.75, M 2.27, I 4.18, W 3.49, E 3, Q 1.6, Y 2.21, N 3.1, D 2.98, A 2.22, P 3.31, R 4.62, T 2.57
Q14: R 3.61, G 2.82, S 2.26, T 3.78, E 2, A 3.39, M 4.32, H 3.42, D 3.4, N 2.92, W 3.44, V 2.08, F 2.56, I 2.95, Y 1.85, K 2.75, P 2.67
